Measurements as given in the supplement of paper PMC11246515.
± gives the standard deviation of the averaged measurements.

Assay: total protein half-life in vivo (active degradation + dilution); higher = more stable protein
[1] = E. coli NCM3722 delta-clpP delta-lon delta-hslV, growth: N-lim chemostat, doubling time 6 h
[2] = E. coli NCM3722 delta-clpP, growth: N-lim chemostat, doubling time 6 h
[3] = E. coli NCM3722 delta-hslV, growth: N-lim chemostat, doubling time 6 h
[4] = E. coli NCM3722 delta-lon, growth: N-lim chemostat, doubling time 6 h
[5] = E. coli NCM3722 delta-smpB, growth: N-lim chemostat, doubling time 6 h
[6] = wild type E. coli NCM3722, growth: C-lim chemostat, doubling time 3 h
[7] = wild type E. coli NCM3722, growth: C-lim chemostat, doubling time 6 h
[8] = wild type E. coli NCM3722, growth: C-lim chemostat, doubling time 12 h
[9] = wild type E. coli NCM3722, growth: N-lim chemostat, doubling time 6 h
[10] = wild type E. coli NCM3722, growth: N-lim chemostat, doubling time 12 h
[11] = wild type E. coli NCM3722, growth: P-lim chemostat, doubling time 6 h
[12] = wild type E. coli NCM3722, growth: P-lim chemostat, doubling time 12 h

Sequence	total protein half-life in vivo [1]	total protein half-life in vivo [2]	total protein half-life in vivo [3]	total protein half-life in vivo [4]	total protein half-life in vivo [5]	total protein half-life in vivo [6]	total protein half-life in vivo [7]	total protein half-life in vivo [8]	total protein half-life in vivo [9]	total protein half-life in vivo [10]	total protein half-life in vivo [11]	total protein half-life in vivo [12]
MLNNAMSVVILAAGKGTRMYSDLPKVLHTLAGKAMVQHVIDAANELGAAHVHLVYGHGGDLLKQALKDDNLNWVLQAEQLGTGHAMQQAAPFFADDEDILMLYGDVPLISVETLQRLRDAKPQGGIGLLTVKLDDPTGYGRITRENGKVTGIVEHKDATDEQRQIQEINTGILIANGADMKRWLAKLTNNNAQGEYYITDIIALAYQEGREIVAVHPQRLSEVEGVNNRLQLSRLERVYQSEQAEKLLLAGVMLRDPARFDLRGTLTHGRDVEIDTNVIIEGNVTLGHRVKIGTGCVIKNSVIGDDCEISPYTVVEDANLAAACTIGPFARLRPGAELLEGAHVGNFVEMKKARLGKGSKAGHLTYLGDAEIGDNVNIGAGTITCNYDGANKFKTIIGDDVFVGSDTQLVAPVTVGKGATIAAGTTVTRNVGENALAISRVPQTQKEGWRRPVKKK [P0ACC7]	6.48 ± 0.94 h	5.96 ± 1.1 h	5.08 ± 0.11 h	5.46 ± 0.28 h	4.93 ± 0.12 h	2.92 ± 0.096 h	5.9 ± 0.48 h	11.8 ± 0.66 h	5.122 ± 0.044 h	9.31 ± 0.57 h	5.96 ± 0.37 h	12.9 ± 0.34 h
MLNPIVRKFQYGQHTVTLETGMMARQATAAVMVSMDDTAVFVTVVGQKKAKPGQDFFPLTVNYQERTYAAGRIPGSFFRREGRPSEGETLIARLIDRPIRPLFPEGFVNEVQVIATVVSVNPQVNPDIVAMIGASAALSLSGIPFNGPIGAARVGYINDQYVLNPTQDELKESKLDLVVAGTEAAVLMVESEAQLLSEDQMLGAVVFGHEQQQVVIQNINELVKEAGKPRWDWQPEPVNEALNARVAALAEARLSDAYRITDKQERYAQVDVIKSETIATLLAEDETLDENELGEILHAIEKNVVRSRVLAGEPRIDGREKDMIRGLDVRTGVLPRTHGSALFTRGETQALVTATLGTARDAQVLDELMGERTDTFLFHYNFPPYSVGETGMVGSPKRREIGHGRLAKRGVLAVMPDMDKFPYTVRVVSEITESNGSSSMASVCGASLALMDAGVPIKAAVAGIAMGLVKEGDNYVVLSDILGDEDHLGDMDFKVAGSRDGISALQMDIKIEGITKEIMQVALNQAKGARLHILGVMEQAINAPRGDISEFAPRIHTIKINPDKIKDVIGKGGSVIRALTEETGTTIEIEDDGTVKIAATDGEKAKHAIRRIEEITAEIEVGRVYTGKVTRIVDFGAFVAIGGGKEGLVHISQIADKRVEKVTDYLQMGQEVPVKVLEVDRQGRIRLSIKEATEQSQPAAAPEAPAAEQGE	6.65 ± 0.71 h	6.67 ± 0.63 h	5.92 ± 0.65 h	6.01 ± 0.18 h	5.58 ± 0.41 h	3.25 ± 0.055 h	6.31 ± 0.21 h	11.5 ± 0.16 h	5.78 ± 0.26 h	11.8 ± 0.57 h	6.05 ± 0.14 h	12.4 ± 1.5 h
MLNQELELSLNMAFARAREHRHEFMTVEHLLLALLSNPSAREALEACSVDLVALRQELEAFIEQTTPVLPASEEERDTQPTLSFQRVLQRAVFHVQSSGRNEVTGANVLVAIFSEQESQAAYLLRKHEVSRLDVVNFISHGTRKDEPTQSSDPGSQPNSEEQAGGEERMENFTTNLNQLARVGGIDPLIGREKELERAIQVLCRRRKNNPLLVGESGVGKTAIAEGLAWRIVQGDVPEVMADCTIYSLDIGSLLAGTKYRGDFEKRFKALLKQLEQDTNSILFIDEIHTIIGAGAASGGQVDAANLIKPLLSSGKIRVIGSTTYQEFSNIFEKDRALARRFQKIDITEPSIEETVQIINGLKPKYEAHHDVRYTAKAVRAAVELAVKYINDRHLPDKAIDVIDEAGARARLMPVSKRKKTVNVADIESVVARIARIPEKSVSQSDRDTLKNLGDRLKMLVFGQDKAIEALTEAIKMARAGLGHEHKPVGSFLFAGPTGVGKTEVTVQLSKALGIELLRFDMSEYMERHTVSRLIGAPPGYVGFDQGGLLTDAVIKHPHAVLLLDEIEKAHPDVFNILLQVMDNGTLTDNNGRKADFRNVVLVMTTNAGVRETERKSIGLIHQDNSTDAMEEIKKIFTPEFRNRLDNIIWFDHLSTDVIHQVVDKFIVELQVQLDQKGVSLEVSQEARNWLAEKGYDRAMGARPMARVIQDNLKKPLANELLFGSLVDGGQVTVALDKEKNELTYGFQSAQKHKAEAAH [P0ABH9]	6.61 ± 0.43 h	6.29 ± 0.55 h	0.877 ± 0.22 h	0.987 ± 0.069 h	0.823 ± 0.015 h	0.7994 ± 0.0018 h	0.97 ± 0.039 h	1.14 ± 0.28 h	1.03 ± 0.18 h	1.046 ± 0.0038 h	0.795 ± 0.2 h	1.56 ± 0.78 h
MLNQKIQNPNPDELMIEVDLCYELDPYELKLDEMIEAEPEPEMIEGLPASDALTPADRYLELFEHVQSAKIFPDSKTFPDCAPKMDPLDILIRYRKVRRHRDFDLRKFVENHFWLPEVYSSEYVSDPQNSLKEHIDQLWPVLTREPQDHIPWSSLLALPQSYIVPGGRFSETYYWDSYFTMLGLAESGREDLLKCMADNFAWMIENYGHIPNGNRTYYLSRSQPPVFALMVELFEEDGVRGARRYLDHLKMEYAFWMDGAESLIPNQAYRHVVRMPDGSLLNRYWDDRDTPRDESWLEDVETAKHSGRPPNEVYRDLRAGAASGWDYSSRWLRDTGRLASIRTTQFIPIDLNAFLFKLESAIANISALKGEKETEALFRQKASARRDAVNRYLWDDENGIYRDYDWRREQLALFSAAAIVPLYVGMANHEQADRLANAVRSRLLTPGGILASEYETGEQWDKPNGWAPLQWMAIQGFKMYGDDLLGDEIARSWLKTVNQFYLEQHKLIEKYHIADGVPREGGGGEYPLQDGFGWTNGVVRRLIGLYGEP	5.33 ± 0.21 h	3.703 ± 0.019 h	2.44 ± 0.17 h	2.97 ± 0.09 h	2.61 ± 0.21 h	1.15 h	2.95 h	3.87 ± 0.14 h	2.47 ± 0.1 h	3.37 ± 0.04 h	2.42 ± 0.43 h	4.75 ± 0.37 h
MLNQLDNLTERVRGSNKLVDRWLHVRKHLLVAYYNLVGIKPGKESYMRLNEKALDDFCQSLVDYLSAGHFSIYERILHKLEGNGQLARAAKIWPQLEANTQQIMDYYDSSLETAIDHDNYLEFQQVLSDIGEALEARFVLEDKLILLVLDAARVKHPA [P0AFX4]	–	6.38 h	2.42 ± 0.21 h	2.8 h	2.38 ± 0.34 h	–	3.06 ± 0.11 h	5.14 ± 0.081 h	2.51 ± 0.29 h	3.09 ± 0.19 h	3.51 h	5.62 ± 0.091 h
